Results published in doi:10.1101/2024.06.25.600625 (bioRxiv, 2024).

B1: C-terminally FlAsH-labeled p23 (natural protein)
chain: MQPASAKWYDRRDYVFIEFCVEDSKDVNVNFEKSKLTFSCLGGSDNFKHLNEIDLFHCIDPNDSKHKRTDRSILCCLRKGESGQSWPRLTKERAKLNWLSVDFNNWKDWEDDSDEDMSNFDRFSEMMNNMGGDEDVDLPEVDGADDDSQDSDDEKMPDLE
modifications: FlAsH-EDT2 label on the C-terminal tetra-cysteine tag
B3: human Hsp90α Y38E,Y61F,Y197E (natural protein)
chain: not shown
B5: human Hsp90α Y38F,Y61F,Y197E (natural protein)
chain: not shown
B6: human Hsp90α Y38F,Y61E,Y197E (natural protein)
chain: not shown

Legend:
Assay in all cases: fluorescence polarisation
[1] = target: B5
human Hsp90α Y61E = human Hsp90α Y61E (human, UniProt P07900 1-732, Y61E)
[2] = target: B6
human Hsp90α Y197E = human Hsp90α Y197E (human, UniProt P07900 1-732, Y197E)
human Hsp90α Y38F = human Hsp90α Y38F (human, UniProt P07900 1-732, Y38F)
human Hsp90α Y197F = human Hsp90α Y197F (human, UniProt P07900 1-732, Y197F)
wild-type human Hsp90α = wild-type human Hsp90α (human, UniProt P07900 1-732)
human Hsp90α Y61F = human Hsp90α Y61F (human, UniProt P07900 1-732, Y61F)
[3] = target: B3
[4] = target: human Hsp90α Y38F,Y61F,Y197F (human, UniProt P07900 1-732, Y38F | Y61F | Y197F)
[5] = target: T1, N-terminally FlAsH-labeled CDC37 (UniProt Q16543 1-378, FlAsH-EDT2 label on the N-terminal tetra-cysteine tag)
T1 sequence: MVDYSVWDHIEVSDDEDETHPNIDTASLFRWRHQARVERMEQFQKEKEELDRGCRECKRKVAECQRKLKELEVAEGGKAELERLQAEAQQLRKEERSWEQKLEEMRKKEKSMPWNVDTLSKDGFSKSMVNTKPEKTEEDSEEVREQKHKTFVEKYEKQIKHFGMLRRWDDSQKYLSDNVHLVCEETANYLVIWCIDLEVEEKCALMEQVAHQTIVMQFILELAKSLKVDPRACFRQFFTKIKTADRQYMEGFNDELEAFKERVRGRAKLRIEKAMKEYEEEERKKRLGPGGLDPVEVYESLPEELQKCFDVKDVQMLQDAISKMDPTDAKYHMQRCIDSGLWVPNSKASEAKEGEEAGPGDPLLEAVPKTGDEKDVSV

[6] = target: B1

B1
binding result [1]: binds | binding result (human Hsp90α Y61E): binds | binding result [2]: binds | binding result (human Hsp90α Y197E): binds | binding result (human Hsp90α Y38F): binds | binding result (human Hsp90α Y197F): binds | binding result (wild-type human Hsp90α): binds | binding result (human Hsp90α Y61F): binds | binding result [3]: binds | binding result [4]: binds

B2: unlabeled p23 (natural protein)
chain: MQPASAKWYDRRDYVFIEFCVEDSKDVNVNFEKSKLTFSCLGGSDNFKHLNEIDLFHCIDPNDSKHKRTDRSILCCLRKGESGQSWPRLTKERAKLNWLSVDFNNWKDWEDDSDEDMSNFDRFSEMMNNMGGDEDVDLPEVDGADDDSQDSDDEKMPDLE
binding result (wild-type human Hsp90α): binds

B3
fold increase of KD against all other Hsp90 variants [5]: 2 fold

B4: human Hsp90α Y38E (natural protein)
chain: not shown
fold increase of KD (reference not named, wild type implied) [6]: 3.5 fold

B5
fold increase of KD against all other Hsp90 variants [5]: 2 fold

B6
fold increase of KD against all other Hsp90 variants [5]: 2 fold
